# Literature values as cited in patent US20110171162A1, “POLYMER CONJUGATES OF THYMOSIN ALPHA 1 PEPTIDES” (NEKTAR THERAPEUTICS, priority 2008, published 2011).
# Details: in human plasma
substance,measurement,value
"thymosin alpha 1: Twenty-eight amino acid peptide, SEQ ID NO: 1 (SDAAVDTSSEITTKDLKEKKEVVEEAEN); sold as ZADAXIN thymosin alpha 1, injection (thymalfasin) (listed as Homo sapiens)",half-life,approximately two
